Where two headings read alike, the source gives them in different places.
How the values were obtained:
[1] = target: T1, human PD-L1 expressed on mammalian cells (human, UniProt Q9NZQ7 19-290); assay: cell-based binding on Raji-PDL1 cells (FACS by paragraph 328; the y axis of the sheet is labelled IL2 (ng/ml)); EC50 table has no unit, x axis Concentration (nM)
T1 construct: whole, on cells; also called PDL1-CHOK1 cells; PDL1-Raji cells
Experimental: To evaluate the antigen binding property, the antibodies were analyzed for its binding to mammalian expressed PD-L1 by FACS. Briefly, PDL1-Raji cells were firstly incubated with 5-fold serious diluted humanized antibodies starting at 2 µg/ml at RT for 1 hour. After wash by FACS buffer (PBS with 2% FBS), the Alexa 488-anti-human IgG antibody was added to each well and incubated at RT for 1 hour. The MFI of Alexa 488 was evaluated by FACSAriaIII.

[2] = target: T2, human PD-L1 (construct not stated) (human, UniProt Q9NZQ7 19-239, limits assumed); assay: SPR Biacore, affinity ranking
T2 construct: also called B7-H1 (PD-L1); PD-L1 protein

[3] = target: T1, human PD-L1 expressed on mammalian cells; assay: FACS receptor blocking on PDL1-CHOK1 cells, competitor Bio-PD1 (30 µg/ml)
Experimental: To evaluate the blocking effect of humanized antibodies on human PD-L1 expressed on mammalian cells to bind to its receptor PD-1, the FACS-based receptor blocking assay was employed. Briefly, PDL1-CHOK1 cells were firstly incubated with 3-fold serious diluted HL1210-3 mouse mAb starting at 20 μg/ml at RT for 1 hour. After wash by FACS buffer (PBS with 2% FBS), the biotin-labeled huPD-1 were added to each well and incubated at RT for 1 hour. Then, the Streptavidin-PE was added to each well for 0.5 hour post twice wash with FACS buffer. The mean florescence intensity (MFI) of PE was evaluated by FACSAriaIII.

[4] = target: T3, human PD-L1-his taq protein (human, UniProt Q9NZQ7 19-239, limits assumed); assay: SPR Biacore T200, antibody captured, PD-L1-his injected
T3 construct: also called recombinant PD-L1 protein; recombinant human PD-L1; not shown: his tag
How it was run: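 HL1210-3 mouse mAb was captured via anti-mouse Fc antibody on a CM5 chip, then serially diluted PD-L1-his was injected for 3 min […]. Dissociation was followed for 900 s.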

[5] = target: T1, human PD-L1 expressed on mammalian cells; assay: flow cytometry (MFI) on PDL1-CHOK1 cells; EC50 table has no unit, x axis Antibodies(nM)
Experimental: (§1) To evaluate the antigen binding property, the humanized antibodies were analyzed for its binding to mammalian expressed PD-L1 by FACS. Briefly, PDL1-CHOK1 cells were firstly incubated with 5-fold serious diluted humanized antibodies starting at 2 μg/ml at RT for 1 hour. After wash by FACS buffer (PBS with 2% FBS), the alexa 488-anti-human IgG antibody was added to each well and incubated at RT for 1 hour. The MFI of Alexa 488 was evaluated by FACSAriaIII.

human PD-L1-Fc protein [6] = target: T4, human PD-L1-Fc protein (human, UniProt Q9NZQ7 19-239); assay: ELISA on coated human PD-L1-Fc; EC50 table has no unit, x axis Ab(nM)
T4 construct: Coated on ELISA plates; also called huPD-L1; not shown: Fc part
Experimental: (§2) To evaluate the antigen binding activity, the humanized antibodies were subjected to ELISA test. Briefly, microtiter plates were coated with human PD-L1-Fc protein at 0.1 μg/ml in PBS, 100 μl/well at 4° C. overnight, then blocked with 100 μl/well of 5% BSA. Five-fold dilutions of humanized antibodies starting from 10 μg/ml were added to each well and incubated for 1-2 hours at RT. The plates were washed with PBS/Tween and then incubate with […] antibody conjugated with Horse Radish Peroxidase (HRP) for 1 hour at RT. After washing, the plates were developed with TMB substrate and analyzed by spectrophotometer at OD 450-630 nm.

human PD-L1-Fc protein [7] = target: T4, human PD-L1-Fc protein; assay: as above; remark: listed apart in the source
Experimental: as §2

[8] = target: T1, human PD-L1 expressed on mammalian cells; assay: flow cytometry (MFI) on PDL1-CHOK1 cells; EC50 table has no unit, x axis Antibodies(nM); remark: listed apart in the source
Experimental: as §1

human PD-L1-Fc protein [9] = target: T4, human PD-L1-Fc protein; assay: ELISA on coated human PD-L1-Fc; EC50 table has no unit, x axis Ab(nM); remark: listed apart in the source
Experimental: as §2

human PD-L1-Fc protein [10] = target: T4, human PD-L1-Fc protein; assay: as above; remark: listed apart in the source
Experimental: as §2

[11] = target: T1, human PD-L1 expressed on mammalian cells; assay: flow cytometry (MFI) on PDL1-CHOK1 cells; EC50 table has no unit, x axis Antibodies(nM); remark: listed apart in the source
Experimental: as §1

human PD-L1-Fc protein [12] = target: T4, human PD-L1-Fc protein; assay: ELISA on coated human PD-L1-Fc; EC50 table has no unit, x axis Ab(nM); remark: listed apart in the source
Experimental: as §2

[13] = target: T2, human PD-L1 (construct not stated); assay: BLI Octet Red 96, affinity ranking
Text: To explore the binding kinetics of the humanized antibody, this example performed the affinity ranking by using Octet Red 96.

[14] = target: T5, recombinant human LAG-3-ECD-human IgG1 fusion protein (human, UniProt P18627 23-450, biotin-labeled in the MHC class II blocking assays); assay: ELISA on coated human LAG3 ECD-Fc; EC50 table has no unit, x axis Ab(nM)
T5 construct: extracellular domain; also called LAG-3-huFc; LAG-3-ECD-huFc; not shown: human IgG1 Fc
T5 sequence (looked up): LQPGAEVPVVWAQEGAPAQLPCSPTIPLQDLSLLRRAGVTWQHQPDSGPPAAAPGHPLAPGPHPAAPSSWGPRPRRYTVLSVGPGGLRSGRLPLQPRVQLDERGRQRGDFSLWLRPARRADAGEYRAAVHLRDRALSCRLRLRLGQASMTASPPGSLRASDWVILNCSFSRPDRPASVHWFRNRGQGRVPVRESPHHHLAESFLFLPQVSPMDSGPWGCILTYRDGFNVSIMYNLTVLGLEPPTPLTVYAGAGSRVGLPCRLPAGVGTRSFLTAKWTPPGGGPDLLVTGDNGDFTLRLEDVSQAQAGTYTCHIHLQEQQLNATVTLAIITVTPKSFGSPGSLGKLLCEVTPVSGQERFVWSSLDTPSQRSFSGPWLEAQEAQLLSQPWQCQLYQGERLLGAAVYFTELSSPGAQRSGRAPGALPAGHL
Experimental: (§3) To evaluate the capability of the anti-LAG-3 antibodies to bind to human, rat, and mouse LAG3 the antibodies identified in Example 2.1 were evaluated for their binding property through ELISA. The human, rat and mouse LAG3 ECD-Fc protein were coated to ELISA plate at 1 μg/ml with 100 μl/well. Antibodies from Example 1 were serially diluted with ELISA diluent buffer. […] The resulting plates were washed and then labeled with anti-human IgG(Fab)-HRP antibody. The S31 can only bind to human LAG3. The S27 and T99 can bind to human LAG3 and rat/mouse LAG3 with lower potency. The S119 antibody can bind to human, rat and mouse LAG3 at high potency (FIGS. 22A-22D).

[15] = target: T6, recombinant his-tag human LAG3-ECD protein (human, UniProt P18627 23-450); assay: SPR Biacore T200, antibody captured by anti-human Fc, LAG3-ECD-his injected
T6 construct: extracellular domain; not shown: his tag
T6 sequence (looked up): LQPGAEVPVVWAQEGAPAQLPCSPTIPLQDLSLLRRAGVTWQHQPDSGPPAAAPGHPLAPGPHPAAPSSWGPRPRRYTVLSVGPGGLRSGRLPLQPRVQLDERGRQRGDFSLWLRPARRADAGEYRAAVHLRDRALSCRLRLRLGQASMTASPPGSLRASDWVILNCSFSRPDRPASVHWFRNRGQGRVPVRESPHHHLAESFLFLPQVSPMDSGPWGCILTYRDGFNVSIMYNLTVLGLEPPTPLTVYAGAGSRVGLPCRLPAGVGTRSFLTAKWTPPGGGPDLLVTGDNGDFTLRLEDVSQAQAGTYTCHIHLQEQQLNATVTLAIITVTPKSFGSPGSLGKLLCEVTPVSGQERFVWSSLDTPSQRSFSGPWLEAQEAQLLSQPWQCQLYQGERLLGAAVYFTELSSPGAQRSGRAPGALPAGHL
Experimental: The binding of the S20, S24, S27, S31, S87, S119, S120, S128, S136, S161 and T99 antibodies to recombinant his-tag human LAG3-ECD protein was examined by Biacore T200 using a capture method. Anti-LAG3 antibodies were captured using anti-human Fc antibody. The anti-human Fc antibody was coated on chip. Serial concentrations of his-tag human LAG3-ECD protein (0-4 nM) were injected over capture antibodies at the flow rate of 30 μl/min. The dissociation phase was 900 s or 550 s. The Biacore results for the anti-LAG3 antibodies have shown that these anti-LAG3 antibodies are high affinity binder to human LAG3.

[16] = target: T7, mouse LAG3 ECD-Fc protein (mouse, UniProt Q61790 24-442); assay: ELISA on coated mouse LAG3 ECD-Fc; EC50 table has no unit, x axis Ab(nM); curve without upper plateau
T7 construct: extracellular domain; not shown: Fc part
T7 sequence (looked up): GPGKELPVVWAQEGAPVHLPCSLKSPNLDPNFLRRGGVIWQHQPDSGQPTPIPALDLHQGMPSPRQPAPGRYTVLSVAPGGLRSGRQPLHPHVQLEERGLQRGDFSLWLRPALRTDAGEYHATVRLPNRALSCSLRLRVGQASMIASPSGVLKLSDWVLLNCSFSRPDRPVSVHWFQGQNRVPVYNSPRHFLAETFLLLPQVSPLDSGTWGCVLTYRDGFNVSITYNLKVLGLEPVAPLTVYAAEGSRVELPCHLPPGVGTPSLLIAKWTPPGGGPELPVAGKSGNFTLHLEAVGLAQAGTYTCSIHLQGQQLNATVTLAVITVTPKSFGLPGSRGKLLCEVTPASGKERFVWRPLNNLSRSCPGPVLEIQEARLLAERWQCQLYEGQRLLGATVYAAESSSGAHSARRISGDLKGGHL
Experimental: as §3

[17] = target: T5, recombinant human LAG-3-ECD-human IgG1 …; assay: flow cytometry; blocking of biotin-LAG-3-ECD-huFc binding to MHC class II on Raji cells
Experimental: To evaluate the ability of anti-LAG-3 antibodies to block the binding of sLAG-3 to MHC class II receptor, an in vitro binding assay was designed using biotin-labeled LAG-3-ECD-huFc fusion proteins and Raji cells expressing MHC class II receptor. Antibodies from Example 1 were serially diluted from 20 μg/mL with FACS buffer and pre-incubated with 6 μg/mL of biotin-LAG-3-ECD-huFcc for 30 min at room temperature. The antibody mixture was then added to FcR blocked Raji cells and incubated for 30 min on ice. Cells were then washed with FACS buffer and subsequently stained with streptavidin PE for 30 min on ice and subsequently washed once with FACS buffer. Labeled cells were evaluated for fluorescence intensity by flow cytometry in a BD FACSCalibur™.

rat LAG3 ECD-Fc protein = target: T8, rat LAG3 ECD-Fc protein (rat, UniProt Q5BK54 24-442); assay: ELISA on coated rat LAG3 ECD-Fc; EC50 table has no unit, x axis Ab(nM); curve without upper plateau
T8 construct: extracellular domain; not shown: Fc part
T8 sequence (looked up): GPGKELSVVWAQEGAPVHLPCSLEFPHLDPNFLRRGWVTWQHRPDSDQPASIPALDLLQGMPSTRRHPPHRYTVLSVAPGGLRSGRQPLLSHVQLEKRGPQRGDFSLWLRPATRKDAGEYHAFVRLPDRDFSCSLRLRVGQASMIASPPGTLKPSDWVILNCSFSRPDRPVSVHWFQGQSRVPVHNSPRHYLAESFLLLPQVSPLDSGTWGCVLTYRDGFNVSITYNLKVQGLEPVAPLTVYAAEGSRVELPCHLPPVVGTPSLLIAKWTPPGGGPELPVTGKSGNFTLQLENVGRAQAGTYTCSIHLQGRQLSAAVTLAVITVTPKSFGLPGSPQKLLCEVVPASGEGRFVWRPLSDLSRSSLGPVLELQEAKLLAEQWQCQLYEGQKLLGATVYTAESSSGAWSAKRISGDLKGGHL
Experimental: as §3

T3 sequence (Q9NZQ7 19-239 limits assumed): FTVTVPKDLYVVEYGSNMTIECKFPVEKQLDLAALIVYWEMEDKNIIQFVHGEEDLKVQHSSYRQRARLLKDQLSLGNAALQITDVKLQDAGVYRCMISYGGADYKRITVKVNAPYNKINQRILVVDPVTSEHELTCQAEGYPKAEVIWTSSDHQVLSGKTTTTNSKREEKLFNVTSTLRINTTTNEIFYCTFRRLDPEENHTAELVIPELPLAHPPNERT
T2 sequence (Q9NZQ7 19-239 limits assumed): as above
T4 sequence (Q9NZQ7 19-239 limits assumed): as above
T1 sequence (Q9NZQ7 19-290): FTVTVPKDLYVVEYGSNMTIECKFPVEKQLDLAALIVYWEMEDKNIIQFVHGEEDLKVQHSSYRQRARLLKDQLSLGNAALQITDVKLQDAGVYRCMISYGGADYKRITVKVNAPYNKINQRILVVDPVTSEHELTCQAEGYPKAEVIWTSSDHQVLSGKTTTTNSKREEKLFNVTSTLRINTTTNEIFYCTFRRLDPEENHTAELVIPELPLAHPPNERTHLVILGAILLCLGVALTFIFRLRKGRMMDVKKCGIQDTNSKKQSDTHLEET

B1: WT (parental clone of the Hu1210-41 engineering) (antibody, V domains shown)
VH: EVQLVESGGGLVQPGGSLRLSCAASGFTFSSYDMSWVRQAPGKSLEWVATISDAGGYIYYRDSVKGRFTISRDNAKNSLYLQMNSLRDEDTAVYICAREFGKRYALDYWGQGTTVTVSS
VL: DIQMTQSPSSLSASVGDRVTITCKASQDVTPAVAWYQQKPGKAPKLLIYSTSSRYTGVPSRFSGSGSGTDFTFTISSLQPEDIATYYCQQHYTTPLTFGQGTKLEIK
notes: Differs from Hu1210-41 by S60R (Kabat) in the heavy chain; also called parental antibody WT; parent antibody WT
EC50 [1]: 5.04 nM
Kd [2]: 2.63 nM
koff [2]: 0.000464 s⁻¹
kon [2]: 177000 M⁻¹ s⁻¹

B2: H1210 chimera (antibody, V domains shown)
VH: EVKLVESGGDLVKPGGSLKLSCAASGFTFSSYDMSWVRQTPEKSLEWVATISDGGGYIYYSDSVKGRFTISRDNAKNNLYLQMSSLRSEDTALYICAREFGKRYALDYWGQGTSVTVSS
VL: DIVMTQSHKFMSTSVGDRVSISCKASQDVTPAVAWYQQKPGQSPKLLIYSTSSRYTGVPDRFTGSGSGTDFTFTISSVQAEDLAVYYCQQHYTTPLTFGAGTKLELK
notes: also called chimeric antibody
TOP [3]: 87.2
Kd [4]: 0.264 nM
koff [4]: 3.27e-05 s⁻¹
kon [4]: 124000 M⁻¹ s⁻¹
EC50 [5]: 0.95 nM
EC50 (human PD-L1-Fc protein [6]): 0.139 nM
EC50 (human PD-L1-Fc protein [7]): 0.169 nM
EC50 [8]: 0.95 nM
EC50 (human PD-L1-Fc protein [9]): 0.17 nM
EC50 (human PD-L1-Fc protein [10]): 0.16 nM
EC50 [11]: 0.95 nM
EC50 (human PD-L1-Fc protein [12]): 0.177 nM
Kd [13]: 1.07 nM
koff [13]: 0.000173 s⁻¹
kon [13]: 162000 M⁻¹ s⁻¹

B3: NLAG3-HDB169-S27 (antibody, human IgG1, V domains shown)
VH: QVQLVQSGAEVKKPGSSVKVSCKASGGTFSSYAISWVRQAPGQGLEWMGGIIPIFGTANYAQKFQGRVTITADESTSTAYMELSSLRSEDTAVYYCTTAAPGSYYLVFHYWGQGTLVTVSS
VL: DIQLTQSPSSLSASVGDRVTITCRASQTISSHLNWYQQKPGKAPKVLIYAASSLQSGVPSRFSGSGSGTEFTLTISSLQPDDFATYYCQQGNSFPFTFGPGTKVEIKR
notes: Short label tied by its unique suffix
EC50 [14]: 0.21 nM
Kd [15]: 0.0156 nM
koff [15]: 0.00011 s⁻¹
kon [15]: 7.04e+06 M⁻¹ s⁻¹
EC50 [16]: 12.6 nM
IC50 [17]: 29.8 nM
EC50 (rat LAG3 ECD-Fc protein): 13.9 nM

Reference: US20220363763A1 (ABL BIO, published 2022)
